According to patent US20180009892A1 (EUREKA THERAPEUTICS, published 2018):

Assays:
[1] = target: T1, ROR1 extracellular domain Fc-fusion, dimer (human, UniProt Q01973 30-406); assay: SPR, immobilised ROR1 dimer, antibody injected, 1:1 model
T1 construct: also called ROR1 dimer; hROR1 dimeric ECD-Fc fusion protein; not shown: Fc part
Procedure: (§1) The binding affinities of ROR1 extracellular domain dimer and monomer for anti-ROR1 antibodies were determined by surface plasmon resonance (SPR). ROR1 extracellular domain Fc-fusion, “dimer,” and ROR1 extracellular domain Fc fusion:Fc heterodimer, “monomer,” are the dimer and monomeric forms of ROR1 used for affinity analysis, respectively. Briefly, ROR1 dimer and monomer were directly immobilized to a CM4 chip using an amine coupling kit and 100 mM ethylenediamine in 100 mM Sodium Borate buffer, pH 8.0 as the blocking reagent. Approximately 100-150 RU of ROR1 dimer and monomer were immobilized on separate flow cells and an un-derivatized flow cell was used as a reference control. […] Dissociation was followed for 180 seconds. The association constant, dissociation constant, and affinity of each anti-ROR1 antibody was calculated using the Biacore T200 Evaluation Software 1:1 binding model.
(§2) Sensorgrams were normalized to 100 RU using the “binding stability point” at the end of the association phase but before the dissociation phase.

[2] = target: T2, ROR1 extracellular domain Fc fusion:Fc heterodimer, monomer (human); assay: SPR, immobilised ROR1 monomer, antibody injected, 1:1 model
T2 construct: Heterodimer of one ROR1 ECD-Fc chain and one Fc chain; also called ROR1 monomer; hROR1 monomeric ECD-Fc fusion protein; not shown: Fc part; Fc alone
T2 sequence (Q01973 30-406, one chain of several): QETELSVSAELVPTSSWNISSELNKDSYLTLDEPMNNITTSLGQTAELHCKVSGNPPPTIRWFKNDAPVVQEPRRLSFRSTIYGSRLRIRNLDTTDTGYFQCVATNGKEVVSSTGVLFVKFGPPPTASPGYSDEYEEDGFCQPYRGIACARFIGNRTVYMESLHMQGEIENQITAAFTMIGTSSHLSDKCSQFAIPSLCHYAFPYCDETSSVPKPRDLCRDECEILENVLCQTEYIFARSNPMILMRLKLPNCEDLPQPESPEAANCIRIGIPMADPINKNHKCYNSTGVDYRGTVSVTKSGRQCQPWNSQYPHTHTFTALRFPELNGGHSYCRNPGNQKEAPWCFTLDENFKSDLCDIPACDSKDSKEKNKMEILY
Procedure: as §1, §2

[3] = target: T1, ROR1 extracellular domain Fc-fusion, …; assay: SPR, immobilised ROR1 dimer, antibody injected, 1:1 model; apparent affinity
Procedure: as §1, §2

mouse ROR1-ECD = target: T3, mouse ROR1-ECD (mouse, UniProt Q9Z139 30-406); assay: phage antibody protein ELISA
T3 construct: extracellular domain; also called mROR1
T3 sequence (Q9Z139 30-406): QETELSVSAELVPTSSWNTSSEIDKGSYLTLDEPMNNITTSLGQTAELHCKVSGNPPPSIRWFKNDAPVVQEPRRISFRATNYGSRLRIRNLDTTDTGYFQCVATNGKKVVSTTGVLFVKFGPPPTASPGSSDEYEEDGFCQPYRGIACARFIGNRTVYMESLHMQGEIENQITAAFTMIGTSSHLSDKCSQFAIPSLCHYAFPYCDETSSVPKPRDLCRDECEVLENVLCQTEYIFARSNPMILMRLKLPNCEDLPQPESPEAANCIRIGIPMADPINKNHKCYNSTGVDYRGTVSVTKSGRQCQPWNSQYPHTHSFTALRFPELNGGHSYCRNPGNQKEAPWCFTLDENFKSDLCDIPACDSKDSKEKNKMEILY
Procedure: (§3) Binding specificities of the 45 phage antibodies were determined by protein ELISA against human ROR1-ECD, human ROR2-ECD and mouse ROR1-ECD (FIG. 12).

human ROR2-ECD = target: T4, human ROR2-ECD (human, UniProt Q01974 34-403); assay: phage antibody protein ELISA
T4 construct: extracellular domain; also called hROR2
T4 sequence (Q01974 34-403): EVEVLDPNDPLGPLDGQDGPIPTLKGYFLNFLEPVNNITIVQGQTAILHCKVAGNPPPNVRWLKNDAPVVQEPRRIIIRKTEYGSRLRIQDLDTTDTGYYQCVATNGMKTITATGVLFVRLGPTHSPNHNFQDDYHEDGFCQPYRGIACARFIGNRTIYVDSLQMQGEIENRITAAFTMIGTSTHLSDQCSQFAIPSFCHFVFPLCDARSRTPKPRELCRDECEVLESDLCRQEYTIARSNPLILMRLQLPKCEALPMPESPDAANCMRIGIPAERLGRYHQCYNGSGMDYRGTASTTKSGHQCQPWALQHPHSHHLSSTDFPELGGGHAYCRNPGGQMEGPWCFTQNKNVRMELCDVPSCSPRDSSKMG
Procedure: as §3

[4] = target: T5, human ROR1 extracellular domain (ECD) protein (human, UniProt Q01973 30-406); assay: competitive phage ELISA: soluble ROR1 against ROR1-coated plate
T5 construct: also called hROR1-ECD; human ROR1-ECD
T5 sequence (Q01973 30-406 limits assumed): as the sequence (Q01973 30-406, one chain of several) above
Procedure: Purified phage antibodies were first diluted serially in PBST buffer, and tested for binding to a ROR1-coated plate. The dilution that gave 50-80% saturating signal was used in the solution binding assay in which phage were first incubated with increasing concentration of ROR1 for one to two hours, and then transferred to a ROR1-coated plate for 10-15 minutes to capture the unbound phage.

T1 sequence (Q01973 30-406): as the sequence (Q01973 30-406, one chain of several) above

Binder	koff [1]	kon [1]	Kd [2]	koff [2]	kon [2]	Kd [3]	binding result (mouse ROR1-ECD)	binding result (human ROR2-ECD)	IC50 [4]
Antibody 601-149 (antibody, V domains shown) VH: EAQLVESGGGLVKPGGSLRLSCAASGFTFSDYYMGWVRQAPGKGLKWLSYISDRAHTIYDTDSVKGRFTISRDDAKSSLYLRMNNLRVEDTAVYYCARAVGAGEGFDYWGQGTLVTVSS VL: DIQLTQSPSSLSASVGDRVTITCQASQDVRNYLNWYQQKPGKAPNLLIYDATNLESGVPSRFSGSGSGTDFTFTISSLQPEDFATYYCQQYDNLPLSFGGGTKVEIK	0.00023 s⁻¹	1.9e+06 M⁻¹ s⁻¹	0.4 nM	0.00069 s⁻¹	1.6e+06 M⁻¹ s⁻¹	0.1 nM	–	–	–
Antibody 601-147 (antibody, V domains shown) VH: QMQLVQSGAEVKKPGASVKVSCKASGYTFSRYYIHWVRQAPGQGLEWMGLINPGGGSTNYAQKFQGRVTMTRDTSTNTVYLELSSLRSDDTAVYYCARDYGTIDARRFDFWGQGTLVTVSS VL: QSALTQPPSASGTPGQRVTISCSGSSSNIGSNYVYWYQQLPGTAPKLLIYRNNQRPSGVPDRFSGSKSGTSASLAISGLRSEDEADYYCAAWDDSLSGYVFGTGTKVTVL	0.00063 s⁻¹	680000 M⁻¹ s⁻¹	2.8 nM	0.0017 s⁻¹	590000 M⁻¹ s⁻¹	0.9 nM	–	–	–
Antibody 601-50 (antibody, V domains shown) VH: QVQLQQSGAEVKKPGASVKVSCKASGYTFSRYYIHWVRRAPGQGLEWMGLINPGGGSTNYAQKFQGRVTMTRDTSTNTVYLELSSLRSDDTAVYYCARDYGTIDARRFDFWGQGTLVTVSS VL: QSALTQPPSASGTPGQRVTISCPGSSSNIGSNYVYWYQQLPGTAPKLLIYRNNQRPSGVPDRFSGSKSGTSATLGITGLQTGDEADYYCGTWDSSLSAYVFGTGTKVTVL	0.0011 s⁻¹	940000 M⁻¹ s⁻¹	1.5 nM	0.0016 s⁻¹	1.1e+06 M⁻¹ s⁻¹	1.1 nM	–	–	–
P601-14 (scFv, V domains shown) VH: QVQLVQSGAEVKKPGESLKISCKDSGYSFTNYWLGWVRQMPGKGLEWMGIIYPGDSDTRYSPSFRGQVTISADKSISTAYLQWSSLKASDTAMYYCARLNLATHTAFDIWGQGTTVTVSS VL: QSVLTQPASVSGSPGQSITISCTGTSSDVGGYNYVSWYQQHPGKAPKLMIYDVSNRPSGVSNRFSGSKSGNTASLTISGLQAEDEADYYCSSYTSSSTLWVFGGGTKLTVLG	–	–	–	–	–	–	binds	no binding	3.22 nM
P601-57 (scFv, V domains shown) VH: EVQLVQSGAEVKKPGSSVKISCKASGGAFTNFGISWVRQAPGQGLEWMGWISTYNSETNYAQKLQGRVTMTTDTSTSTAYMELRSLRSDDTAVYYCARDYYSDSSGYWDDAFDIWGQGTLVTVSS VL: not shown	–	–	–	–	–	–	–	no binding	4.08 nM
P601-28 (scFv, V domains shown) VH: EVQLVQSGGDLVQPGGSLRLSCAASGFTFSSYSMNWVRQAPGKGLEWVSSISSSSSYIYYADSVKGRFTISRDNAKNSLYLQMNSLRAEDTAVYYCARGLGGWTHDAFDIWGQGTTVTVSS VL: QSALTQPASVSGSPGQSITISCTGTSSDVGGYNYVSWYQQHPGKAPKLMIFDVSNRPSGVSNRFSGSKSGNTASLTISGLQAEDEADYYCSSYTSSSTLFGGGTKLTVL	–	–	–	–	–	–	binds	no binding	8.05 nM
Antibody 601-65 (antibody, V domains shown) VH: QVQLQQSGPGLVKPSQTLSLTCAISGDSVSSNSATWNWIRQSPSRGLEWLGRTYYRSKWYNDYAVSVKSRIIINPDTSKNQFSLQLNSVTPEDTAVYYCARGVRAFDIWGQGTTVTVSS VL: QSVLTQPPSVSGTPGQRVTIFCSGGSNNIGRSSVYWYRQAAGTAPKLLIYKTDQRPSGVPDRFAASKSGASASLAISGLRSEDEADYHCATWDDSLSAVVFGGGTKLTVL	0.0072 s⁻¹	1.1e+06 M⁻¹ s⁻¹	6.6 nM	0.011 s⁻¹	1.7e+06 M⁻¹ s⁻¹	6.4 nM	–	–	–
Antibody 601-66 (antibody, V domains shown) VH: QVQLVQSGAEVKEPGASVKVSCKASGYTFRNSGITWVRQAPGQGLEWMGWINPNSGGAMYVDNFQGRATMTRDTSINTAYMELRSLSSDDTAVYYCARGMADLIDVFDIWGQGTLVTVSS VL: TQPALTQPASVSGSPGQSITISCTGTSSDFGDYDYVSWYQQHPGKAPKLMIYDVSDRPSGVSNRFSGSKSGNTASLTISGLQAEDEADYFCSSFTTSSTLVFGGGTKLTVL	0.0051 s⁻¹	3.1e+06 M⁻¹ s⁻¹	2.4 nM	0.0059 s⁻¹	2.5e+06 M⁻¹ s⁻¹	1.7 nM	–	–	–
Antibody 601-70 (antibody, V domains shown) VH: EVQLVQSGAELKKPGSSVRVSCKTSGGSFKTHGISWVRQAPGQGLEWMGWINPNSGGALYVDNFQGRATMTRDTSINTAYMELRSLSSDDTAVYYCARGMADLIDVFDIWGQGTMVTVSS VL: TQPALTQPASVSGSPGQSITISCTGTSSDFGDYDYVSWYQQHPGKAPKLMIYDVSDRPSGVSNRFSGSKSGNTASLTISGLQAEDEADYFCSSFTTSSTLVFGGGTKLTVL	0.018 s⁻¹	5.1e+06 M⁻¹ s⁻¹	5.4 nM	0.019 s⁻¹	3.6e+06 M⁻¹ s⁻¹	3.5 nM	–	–	–
Antibody 601-4 (antibody, V domains shown) VH: EVQLVQSGPGLVKPSGTLSLTCAVSGGSISSSNWWSWVRQPPGKGLEWIGEIYHSGSTNYNPSLKSRVTISVDKSKNQFSLKLGSVTAADTATYYCARDLWLGEWDLWGQGTLVTVSS VL: QSVLTQPPSASGAPGQRVTISCSGGISNVGTNGVNWYQHLPGTAPKLLVDAMNQRPSGVPDRFSGSRSGTSGSLAITGLRSEDEADYYCATWDDSLSGVLFGGGTKLTVLG	0.00076 s⁻¹	3.6e+06 M⁻¹ s⁻¹	0.3 nM	0.0016 s⁻¹	4.6e+06 M⁻¹ s⁻¹	0.2 nM	–	–	–
P601-43 (scFv, V domains shown) VH: QVQLQQSGAEVKKPGASVRVSCKASGYSFGNNGITWVRQAPGQGLEWMGWISTYNGNTNYAQKLQGRVTMTTDTSTSTAYMELRSLRSDDTAVYYCARDYYSDSSGYWDDAFDIWGQGTTVTVSS VL: not shown	–	–	–	–	–	–	–	no binding	0.23 nM
Antibody 601-37 (antibody, V domains shown) VH: EVQLVQSGAEVKKPGASVKVSCKASGYTFNNYGFSWVRQAPGQGLEWMGWISVYNGNTNYAQKLQGRVTMTTDTSTSTAYMELRSLRSDDTAVYYCARDYYSDSSGYWDDAFDIWGQGTMVTVSS VL: AIRMTQSPSSLSASVGDRVTITCQASQDISNYLNWYQQKPGKAPKLLIYAASSLQSGVPSRFSGSGSGTDFTLTISSLQPEDFATYYCQQSYSTPFTFGPGTKVDIK	0.0018 s⁻¹	1e+06 M⁻¹ s⁻¹	3 nM	0.0027 s⁻¹	920000 M⁻¹ s⁻¹	1.7 nM	–	–	–
Antibody 601-141 (antibody, V domains shown) VH: QVQLQQSGAEVKKPGASVKVSCKASGHTFSNYGISWVRQAPGQGLEWMGWISTYNGNTNYAQKLQGRVTMTTDTSTSTAYMELRSLRSDDTAVYYCARDYYSDSSGYWDDAFDIWGQGTTVTVSS VL: not shown	0.022 s⁻¹	1.8e+06 M⁻¹ s⁻¹	20.6 nM	0.026 s⁻¹	1.2e+06 M⁻¹ s⁻¹	11.9 nM	–	–	–
Antibody 601-87 (antibody, V domains shown) VH: QVQLQESGPGLVKSSETLSLTCTVSGGSMNNYYWSWIRQPAGKGLEWMGRIYSSGSTNYNPALKSRVTMSVDTSKNQFSLNLSSVTAADTAIYYCARASWSGTYWALFDYWGQGTLVTVSS VL: ETTLTQSPAFMSATPGDKVNISCKASQDIDDDLNWYQQKPGEAPILIIQEATTLVPGIPPRFSGSGFGTDFTLTINSMQSEDVAYYFCLQHDNFPPTFGQGTKVEIK	0.00058 s⁻¹	760000 M⁻¹ s⁻¹	2.2 nM	0.0013 s⁻¹	600000 M⁻¹ s⁻¹	0.8 nM	–	–	–
P601-1 (scFv, V domains shown) VH: EVQLVESGGGLVKPGGSLRLSCAASGFTFSDYYMSWIRQAPGKGLEWVSYISDSTNTIYYADSVKGRFTVSRDNPKNSLYLQMISLRAEDTAVYYCARAVGAGEGFDHWGQGTLVTVSS VL: not shown	–	–	–	–	–	–	binds	no binding	0.11 nM
Antibody 601-9 (antibody, V domains shown) VH: QLQLQESGPGVVKPSGTLSLTCTVSGGSISRSDGYWGWVRQPPGKGLEWIGSIYDTGTTYYSPSLKSRLIISVDTSKNQFSLTLNSVTAADTAVYYCASMGGLRSSSSDAFHTWGPGTMVTVSS VL: QSVLTQPPSVSVAPGETARITCGGTNIGSESVHWYQQRPGQAPVLVVYDDTDRPSGIPERFSGSNSGNTATLTISRVEAGDGADYYCQVWDSVSDRYVFGTGTKVTVL	0.021 s⁻¹	1.4e+06 M⁻¹ s⁻¹	27.6 nM	0.017 s⁻¹	630000 M⁻¹ s⁻¹	15.3 nM	–	–	–
